In series [1] the target is His-Halo-XcpS62-396 (not stated | P. aeruginosa) (UniProt Q00513). In words: negative-stain electron microscopy structure.
Series [2] concerns the molecule itself. The series is described as follows: SEC-MALS.

The stoichiometry N is a count of units in the complex or per binding partner. With “His-Halo-XcpS62-396 (from UniProt Q00513 62-396) (domain or fragment)”, the stoichiometry N in series [1] was 2.

B1: Strep-mCherry-XcpS56-396 (domain or fragment, P. aeruginosa, UniProt Q00513 56-396, looked up)
chain: RLTFARGLSARDLALVTRQLATLVQAALPIEEALRAAAAQSTSQRIQSMLLAVRAKVLEGHSLAGSLREFPTAFPELYRATVAAGEHAGHLGPVLEQLADYTEQRQQSRQKIQLALLYPVILMVASLAIVGFLLGYVVPDVVRVFIDSGQTLPLLTRVLIGVSDWVKAWGALAFVAAIGGVIGFRYALRKDAFRERWHGFLLRVPLVGRLVRSTDTARFASTLAILTRSGVPLVEALAIAAEVIANRIIRNEVVKAAQKVREGASLTRSLEATGQFPPMMLHMIASGERSGELDQMLARTARNQENDLAAQIGLMVGLFEPFMLIFMGAVVLVIVLAILLP
On to B1, for which the “stoichiometry N” value in series [2] came to 2.

The values are drawn from doi:10.1101/435982 (bioRxiv, 2018).
